Experimental data reported in patent publication US20130225506A1 (POLYPHOR, published 2013).
Square brackets hold non-standard residues; d marks the D form. Primed or numbered codes have the meaning given here. dPro(cis-4-NH2) = N[C@H]1CN[C@@H](C(=O)O)C1; dPro(4S-NH2) = N[C@@H]1CN[C@@H](C(=O)O)C1; 1Nal = N[C@@H](Cc1cccc2ccccc12)C(=O)O; 2Nal = N[C@@H](Cc1ccc2ccccc2c1)C(=O)O; Pro(3S-OH) = O=C(O)[C@H]1NCC[C@@H]1O; dCit = NC(=O)NCCC[C@@H](N)C(=O)O; Tic = O=C(O)[C@@H]1Cc2ccccc2CN1; Agb = N=C(N)NCC[C@H](N)C(=O)O; Agp = N=C(N)NC[C@H](N)C(=O)O; dPip′ = not defined here

Biological target: chemokine receptor CXCR7 (UniProt P25106 1-362, limits assumed)
Sequence (P25106 whole entry): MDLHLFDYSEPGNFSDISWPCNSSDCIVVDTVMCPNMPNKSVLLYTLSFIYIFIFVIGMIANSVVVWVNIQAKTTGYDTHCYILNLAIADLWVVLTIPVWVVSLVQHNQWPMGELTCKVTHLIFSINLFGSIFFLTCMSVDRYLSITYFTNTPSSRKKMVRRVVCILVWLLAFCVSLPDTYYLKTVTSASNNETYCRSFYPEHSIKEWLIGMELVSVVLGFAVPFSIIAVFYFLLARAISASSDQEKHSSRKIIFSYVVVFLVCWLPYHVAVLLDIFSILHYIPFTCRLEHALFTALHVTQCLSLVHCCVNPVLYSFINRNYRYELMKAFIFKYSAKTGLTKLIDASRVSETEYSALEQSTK
Assay: cell-based or functional assay

Binder | β-Arrestin EC50 [nM]
cyclo(I[dR]RI[dP]T) (SMILES CC[C@H](C)[C@@H]1NC(=O)[C@H]([C@@H](C)O)NC(=O)[C@H]2CCCN2C(=O)[C@H]([C@@H](C)CC)NC(=O)[C@H](CCCNC(=N)N)NC(=O)[C@@H](CCCNC(=N)N)NC1=O) [cyclo(-Ile-^DArg-Arg-Ile-^DPro-Thr-)] | 79.7
cyclo(I[dR]WR[dP]T) (SMILES CC[C@H](C)[C@@H]1NC(=O)[C@H]([C@@H](C)O)NC(=O)[C@H]2CCCN2C(=O)[C@H](CCCNC(=N)N)NC(=O)[C@H](Cc2c[nH]c3ccccc23)NC(=O)[C@@H](CCCNC(=N)N)NC1=O) [cyclo(-Ile-^DArg-Trp-Arg-^DPro-Thr-)] | 62.5
cyclo(I[dR]RW[dP]S) (SMILES CC[C@H](C)[C@@H]1NC(=O)[C@H](CO)NC(=O)[C@H]2CCCN2C(=O)[C@H](Cc2c[nH]c3ccccc23)NC(=O)[C@H](CCCNC(=N)N)NC(=O)[C@@H](CCCNC(=N)N)NC1=O) [cyclo(-Ile-^DArg-Arg-Trp-^DPro-Ser-)] | 12.8
cyclo(W[dF]WR[dPro(cis-4-NH2)][Tic]) (SMILES N=C(N)NCCC[C@@H]1NC(=O)[C@H](Cc2c[nH]c3ccccc23)NC(=O)[C@@H](Cc2ccccc2)NC(=O)[C@H](Cc2c[nH]c3ccccc23)NC(=O)[C@@H]2Cc3ccccc3CN2C(=O)[C@H]2C[C@@H](N)CN2C1=O) [cyclo(-Trp-^DPhe-Trp-Arg-^DPro((4R)NH2)-Tic-)] | 6.1
cyclo(I[dK]RW[dP]T) (SMILES CC[C@H](C)[C@@H]1NC(=O)[C@H]([C@@H](C)O)NC(=O)[C@H]2CCCN2C(=O)[C@H](Cc2c[nH]c3ccccc23)NC(=O)[C@H](CCCNC(=N)N)NC(=O)[C@@H](CCCCN)NC1=O) [cyclo(-Ile-^DLys-Arg-Trp-^DPro-Thr-)] | 86.7
cyclo(I[dCit]RW[dP]T) (SMILES CC[C@H](C)[C@@H]1NC(=O)[C@H]([C@@H](C)O)NC(=O)[C@H]2CCCN2C(=O)[C@H](Cc2c[nH]c3ccccc23)NC(=O)[C@H](CCCNC(=N)N)NC(=O)[C@@H](CCCNC(N)=O)NC1=O) [cyclo(-Ile-^DCit-Arg-Trp-^DPro-Thr-)] | 472
cyclo(I[dH]RW[dP]T) (SMILES CC[C@H](C)[C@@H]1NC(=O)[C@H]([C@@H](C)O)NC(=O)[C@H]2CCCN2C(=O)[C@H](Cc2c[nH]c3ccccc23)NC(=O)[C@H](CCCNC(=N)N)NC(=O)[C@@H](Cc2c[nH]cn2)NC1=O) [cyclo(-Ile-^DHis-Arg-Trp-^DPro-Thr-)] | 546
cyclo(I[dR][Agp]W[dP]T) (SMILES CC[C@H](C)[C@@H]1NC(=O)[C@H]([C@@H](C)O)NC(=O)[C@H]2CCCN2C(=O)[C@H](Cc2c[nH]c3ccccc23)NC(=O)[C@H](CNC(=N)N)NC(=O)[C@@H](CCCNC(=N)N)NC1=O) [cyclo(-Ile-^DArg-Agp-Trp-^DPro-Thr-)] | 90.5
cyclo(I[dR][Agb]W[dP]T) (SMILES CC[C@H](C)[C@@H]1NC(=O)[C@H]([C@@H](C)O)NC(=O)[C@H]2CCCN2C(=O)[C@H](Cc2c[nH]c3ccccc23)NC(=O)[C@H](CCNC(=N)N)NC(=O)[C@@H](CCCNC(=N)N)NC1=O) [cyclo(-Ile-^DArg-Agb-Trp-^DPro-Thr-)] | 22.3
cyclo(W[dF]WR[dPro(4S-NH2)][Tic]) (SMILES N=C(N)NCCC[C@@H]1NC(=O)[C@H](Cc2c[nH]c3ccccc23)NC(=O)[C@@H](Cc2ccccc2)NC(=O)[C@H](Cc2c[nH]c3ccccc23)NC(=O)[C@@H]2Cc3ccccc3CN2C(=O)[C@H]2C[C@H](N)CN2C1=O) [cyclo(-Trp-^DPhe-Trp-Arg-^DPro((4S)NH2)-Tic-)] | 17.5
cyclo(T[dR]WR[dP]T) (SMILES C[C@@H](O)[C@@H]1NC(=O)[C@H]([C@@H](C)O)NC(=O)[C@H]2CCCN2C(=O)[C@H](CCCNC(=N)N)NC(=O)[C@H](Cc2c[nH]c3ccccc23)NC(=O)[C@@H](CCCNC(=N)N)NC1=O) [cyclo(-Thr-^DArg-Trp-Arg-^DPro-Thr-)] | 17.2
cyclo([1Nal][dR]RW[dP]T) (SMILES C[C@@H](O)[C@@H]1NC(=O)[C@H]2CCCN2C(=O)[C@H](Cc2c[nH]c3ccccc23)NC(=O)[C@H](CCCNC(=N)N)NC(=O)[C@@H](CCCNC(=N)N)NC(=O)[C@H](Cc2cccc3ccccc23)NC1=O) [cyclo(-1Nal-^DArg-Arg-Trp-^DPro-Thr-)] | 28.5
cyclo(I[dR]R[2Nal][dP]T) (SMILES CC[C@H](C)[C@@H]1NC(=O)[C@H]([C@@H](C)O)NC(=O)[C@H]2CCCN2C(=O)[C@H](Cc2ccc3ccccc3c2)NC(=O)[C@H](CCCNC(=N)N)NC(=O)[C@@H](CCCNC(=N)N)NC1=O) [cyclo(-Ile-^DArg-Arg-2Nal-^DPro-Thr-)] | 0.4
cyclo(I[dR]RW[dPip′]T) [cyclo(-Ile-^DArg-Arg-Trp-^DPip-Thr-)] | 0.1
cyclo(A[dF]WR[dPro(cis-4-NH2)][Tic]) (SMILES C[C@@H]1NC(=O)[C@@H]2Cc3ccccc3CN2C(=O)[C@H]2C[C@@H](N)CN2C(=O)[C@H](CCCNC(=N)N)NC(=O)[C@H](Cc2c[nH]c3ccccc23)NC(=O)[C@@H](Cc2ccccc2)NC1=O) [cyclo(-Ala-^DPhe-Trp-Arg-^DPro((4R)NH2)-Tic-)] | 322
cyclo(I[dR]RY[dP]T) (SMILES CC[C@H](C)[C@@H]1NC(=O)[C@H]([C@@H](C)O)NC(=O)[C@H]2CCCN2C(=O)[C@H](Cc2ccc(O)cc2)NC(=O)[C@H](CCCNC(=N)N)NC(=O)[C@@H](CCCNC(=N)N)NC1=O) [cyclo(-Ile-^DArg-Arg-Tyr-^DPro-Thr-)] | 83.7
cyclo(I[dR]RW[dP][Pro(3S-OH)]) (SMILES CC[C@H](C)[C@@H]1NC(=O)[C@@H]2[C@@H](O)CCN2C(=O)[C@H]2CCCN2C(=O)[C@H](Cc2c[nH]c3ccccc23)NC(=O)[C@H](CCCNC(=N)N)NC(=O)[C@@H](CCCNC(=N)N)NC1=O) [cyclo(-Ile-^DArg-Arg-Trp-^DPro-Pro((3S)OH)-)] | 123
cyclo(I[dR]RW[dP]T) (SMILES CC[C@H](C)[C@@H]1NC(=O)[C@H]([C@@H](C)O)NC(=O)[C@H]2CCCN2C(=O)[C@H](Cc2c[nH]c3ccccc23)NC(=O)[C@H](CCCNC(=N)N)NC(=O)[C@@H](CCCNC(=N)N)NC1=O) [cyclo(-Ile-^DArg-Arg-Trp-^DPro-Thr-)] | 6.7
cyclo(I[dR]R[1Nal][dP]T) (SMILES CC[C@H](C)[C@@H]1NC(=O)[C@H]([C@@H](C)O)NC(=O)[C@H]2CCCN2C(=O)[C@H](Cc2cccc3ccccc23)NC(=O)[C@H](CCCNC(=N)N)NC(=O)[C@@H](CCCNC(=N)N)NC1=O) [cyclo(-Ile-^DArg-Arg-1Nal-^DPro-Thr-)] | 17.9
cyclo(W[dR]RW[dP]T) (SMILES C[C@@H](O)[C@@H]1NC(=O)[C@H]2CCCN2C(=O)[C@H](Cc2c[nH]c3ccccc23)NC(=O)[C@H](CCCNC(=N)N)NC(=O)[C@@H](CCCNC(=N)N)NC(=O)[C@H](Cc2c[nH]c3ccccc23)NC1=O) [cyclo(-Trp-^DArg-Arg-Trp-^DPro-Thr-)] | 538
